Consider 35 sequences from the supplement of paper PMC12764529.

± gives the half width of the 95% confidence interval.

Data set [1] in a line: folding stability dG unfold (combined trypsin and chymotrypsin); higher = more stable. Put shortly:
(§1)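 Sequencing followed digestion of designed mini-proteins with trypsin and chymotrypsin, each at 11 concentrations in threefold dilutions together with a no-protease condition. The mini-proteins were under 80 residues, had no cysteine, sat in a PA-tagged cDNA display construct, and were kept only if AlphaFold2 dimer inter-PAE was above 15. From the counts, Bayesian fitting gave K50, and unfolding free energy was derived against a sequence-predicted unfolded-state K50 and a shared folded-state K50, per protease or combined.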

The nature of data set [2]: folding stability dG unfold from trypsin proteolysis; higher = more stable. Put shortly:
as §1

Data set [3] in a line: folding stability dG unfold from chymotrypsin proteolysis; higher = more stable. The method in brief:
as §1

With “SAGGMIKIEVEKKDDKLIIRIEVDGKKYEIEIPKDMTLEEALKKALEELKEKFPGKKIKIKKVEIFKPSAGG [r13_884_TrROS_Hall]”, the entries for the “folding stability dG unfold” value in data set [1], in data set [2] and in data set [3] were 2.36 ± 0.28 kcal/mol, 3.22 ± 0.21 kcal/mol and 2.21 ± 0.088 kcal/mol, respectively.

“SAGGMIKVEVEPLEDGVLRVRVYVPHPDGPPIEIEVVFPPEVGSLEEALEKAVEVVEEFLKKHNIPLSAGGS [r8_464_TrMRF]”: the “folding stability dG unfold” value in data set [1] turned out to be 2.36 ± 0.1 kcal/mol; in data set [2], 2.25 ± 0.082 kcal/mol; in data set [3], 2.22 ± 0.065 kcal/mol.

Regarding “SAGGMILEIEFPPELIEELLEKLKKEFPDVEVKPLKIEYDPETGLVKVPILVKTKNPEEVEKIKKLAASAGG [r13_539_TrMRF]”, the “folding stability dG unfold” value in data set [1] was determined as 2.83 ± 0.11 kcal/mol; in data set [2], 2.91 ± 0.15 kcal/mol; in data set [3], 2.78 ± 0.091 kcal/mol.

On to “SAGGMILKITIPKEDEEKAKELADELAKKLEEETGKPIKVKVKVEKNENGELTIVIEVDGKKIEIKLSAGGS [r16_356_TrROS_Hall]”, for which the entries for the “folding stability dG unfold” value in data set [1], in data set [2] and in data set [3] were 0.999 ± 0.27 kcal/mol, 1.32 ± 0.091 kcal/mol and 0.444 ± 0.078 kcal/mol, respectively.

For “SAGGMIRITTEDGEELSEEELAELEEAIRKGDLDEAVKKIEELLRERFGKEIKIKVEVFFPPPPPPESAGGS [r8_48_TrROS_Hall]”, the entries for the “folding stability dG unfold” value in data set [1], in data set [2] and in data set [3] were 3.59 ± 0.15 kcal/mol, 3.79 ± 0.26 kcal/mol and 3.26 ± 0.092 kcal/mol, respectively.

With “SAGGMIRVEDTSTSVSIDIEITPLPNGQYKATITTTTTSAKLLPNGTPVTTTTPTTSTVTITPDVPLLSAGG [r13_561_JUSTAS]”, the “folding stability dG unfold” value in data set [1] came to 1.12 ± 0.14 kcal/mol; in data set [2], 1.47 ± 0.053 kcal/mol; in data set [3], 0.681 ± 0.15 kcal/mol.

In the case of “SAGGMITLEIELEDGTKIKIEITRLVSYDEEKGYAIFEAKITVEKDGKKFEKTITIIVKKGTKPGEIISAGG [r13_823_TrROS_Hall]”, the “folding stability dG unfold” value in data set [1] was 4.19 ± 0.38 kcal/mol; in data set [2] it was 4.45 ± 0.43 kcal/mol; in data set [3], 4.01 ± 0.25 kcal/mol.

Consider “SAGGMITLPIPLEEAEKLLKELTPDGGDVTTTPLGSLDGEVLYEVTITPPETGNTVTVKVLVPKGRGSAGGS [r16_486_JUSTAS]”, for which the results for the “folding stability dG unfold” value in data set [1], in data set [2] and in data set [3] were 0.0837 ± 0.16 kcal/mol, -0.627 ± 0.32 kcal/mol and 0.178 ± 0.11 kcal/mol, respectively.

Consider “SAGGMITLTTKTELIGSYRVTYSVTVDPVDDSVVTSTHVTVTPLPPPPPPLPPVPPENPVLPSPRLESAGGS [r8_234_JUSTAS]”, for which the “folding stability dG unfold” value in data set [1] worked out at 0.608 ± 0.2 kcal/mol; in data set [2], 0.355 ± 0.15 kcal/mol; in data set [3] it was 0.56 ± 0.42 kcal/mol.

Take “SAGGMITTSTLSDGTTVVTIRVPGSPEEADAVAEEVREALLAAGYRTVEVSREPVEDGWVVTITTVSSAGGS [r8_113_JUSTAS]”: the “folding stability dG unfold” value came out at 3.711 ± 0.031 kcal/mol in data set [1], 3.28 ± 0.063 kcal/mol in data set [2] and 3.888 ± 0.029 kcal/mol in data set [3].

Take “SAGGMIVLEFPDGKIVFVEPVSEFTTPDGKKVRLVKVIVTDPLTGKSTIIEREVLPGGGVKEKVTPESAGGS [r16_651_JUSTAS]”: the results for the “folding stability dG unfold” value in data set [1], in data set [2] and in data set [3] were 1.49 ± 0.13 kcal/mol, 1.89 ± 0.042 kcal/mol and 1.32 ± 0.043 kcal/mol, respectively.

Regarding “SAGGMKEIAKALGIKPEDVKIEEEEIEVNGKKVKKIKITVKDKKTKKEYKIELTIVYDKNGKIVKIELSAGG [r13_358_TrROS_Hall]”, the results for the “folding stability dG unfold” value in data set [1], in data set [2] and in data set [3] were 4.63 ± 0.57 kcal/mol, 3.61 ± 0.15 kcal/mol and 4.72 ± 0.28 kcal/mol, respectively.

As to “SAGGMKIEVEVSDSDIESAAERIAKEVYEKIKAEGKNEDVEVTLTLPNGTRYRIVVDGKGNVKEIIESSAGG [r13_965_JUSTAS]”, the “folding stability dG unfold” value was found to be 3.74 ± 0.25 kcal/mol in data set [1], 3.07 ± 0.17 kcal/mol in data set [2] and 3.79 ± 0.16 kcal/mol in data set [3].

For “SAGGMKIIEIEYDEETGKYKFKIKIYDKKTGKLYEIEVEVDKKTGKLSIEEIAKKIAEKLGLPKDIKISAGG [r13_362_TrROS_Hall]”, the “folding stability dG unfold” value is 3.69 ± 0.3 kcal/mol in data set [1], 2.8 ± 0.17 kcal/mol in data set [2] and 4.03 ± 0.062 kcal/mol in data set [3].

For the sequence “SAGGMKIKIEIEPEGDVVKVKIEIELPEGKVEVVEEEEAEVFEDGKIKVRFRVRRKDGPEFEFELDISAGGS [r8_449_TrMRF]”, the “folding stability dG unfold” value in data set [1] is 4.17 ± 0.18 kcal/mol; in data set [2], 3.49 ± 0.17 kcal/mol; in data set [3] it was 4.41 ± 0.2 kcal/mol.

For “SAGGMKIKIEVIDPDGKKRVIEIDASTPEEIKAALDALPPGAVVRIVVPSPELREALKEAGVDEVVELSAGG [r13_476_TrROS_Hall]”, the “folding stability dG unfold” value in data set [1] is 3.87 ± 0.2 kcal/mol; in data set [2], 4.37 ± 0.23 kcal/mol; in data set [3] it was 2.77 ± 0.069 kcal/mol.

As for “SAGGMKITITLTVKNEELLEELKKLAEELGLKVKIEVKYDEETNELTVTVEIELPPPPEEPSEEELKSAGGS [r16_262_TrROS_Hall]”, the figures for the “folding stability dG unfold” value in data set [1], in data set [2] and in data set [3] were 3.24 ± 0.15 kcal/mol, 2.49 ± 0.12 kcal/mol and 3.4 ± 0.14 kcal/mol, respectively.

As for “SAGGMKITTKDGSTITVETEPGKVTITIKPPGDGSTTTLPFPAPSEEEGIEAAIKKIEEEGNVEEIELSAGG [r13_579_JUSTAS]”, the “folding stability dG unfold” value in data set [1] stood at 0.491 ± 0.3 kcal/mol; in data set [2], 0.064 ± 0.1 kcal/mol; in data set [3], 0.591 ± 0.1 kcal/mol.

As to “SAGGMKKVKALVVANPFDPNKYKVFVKAEEEEKVFEFDPNNPEKIIEELEKLLPEDYKLDEIVFESGASAGG [r13_519_TrMRF]”, the figures for the “folding stability dG unfold” value in data set [1], in data set [2] and in data set [3] were 1.74 ± 0.1 kcal/mol, 0.752 ± 0.032 kcal/mol and 2.12 ± 0.058 kcal/mol, respectively.

Regarding “SAGGMKKVRLTLVFESEEEALEALRKALEEAGVEVKVVRVERLPDGRVVVTVEIEVSDEVLEALKAASAGGS [r8_357_TrROS_Hall]”, the “folding stability dG unfold” value was determined as 3.91 ± 0.056 kcal/mol in data set [1], 3.77 ± 0.068 kcal/mol in data set [2] and 4.01 ± 0.053 kcal/mol in data set [3].

On to “SAGGMKLEILEKSENRIIIRTDEGKIYIAPEIVKKLKEKGGNIKPTLDEIIEWLEKNNIPAEDAVFGDSAGG [r13_610_TrMRF]”, for which the figures for the “folding stability dG unfold” value in data set [1], in data set [2] and in data set [3] were 0.915 ± 0.11 kcal/mol, 0.689 ± 0.028 kcal/mol and 1.11 ± 0.064 kcal/mol, respectively.

Consider “SAGGMKLEIYLRFKTEEEAKKAVEELIRKLLEELGLEVEVEVVYDEETKEVYVKVTVTFPELPEEELSAGGS [r8_17_TrROS_Hall]”, for which the “folding stability dG unfold” value in data set [1] worked out at 4.4 ± 0.39 kcal/mol; in data set [2], 3.67 ± 0.19 kcal/mol; in data set [3] it was 4.7 ± 0.29 kcal/mol.

In the case of “SAGGMKLPENAKVVKKIEIKDEKTGKTFKATIVKNKDGSLYIFIEKDGKIYKFKIENGKIKMEEIPPSAGGS [r16_711_TrROS_Hall]”, the “folding stability dG unfold” value worked out at 4.07 ± 0.55 kcal/mol in data set [1], 3.75 ± 0.75 kcal/mol in data set [2] and 4.37 ± 0.25 kcal/mol in data set [3].

As to “SAGGMKPGEIVEKITIEIEINGKKYKIEMTFYKDNGIIEIKIYNKNGKLIKTFKFYIDPKTKKIILLSAGGS [r16_798_TrROS_Hall]”, the figures for the “folding stability dG unfold” value in data set [1], in data set [2] and in data set [3] were 3.68 ± 0.34 kcal/mol, 3.66 ± 0.14 kcal/mol and 3.81 ± 0.098 kcal/mol, respectively.

On to “SAGGMKTLTITLTVRNPATQETLTLTITVPEGMSEEELQALLKQLQELVEALLQLPPPPPPPPPELESAGGS [r16_191_TrROS_Hall]”, for which the entries for the “folding stability dG unfold” value in data set [1], in data set [2] and in data set [3] were 4.01 ± 0.11 kcal/mol, 3.16 ± 0.12 kcal/mol and 4.25 ± 0.066 kcal/mol, respectively.

With “SAGGMKTYTVTVEREVPDPSSDKWVYSTETLTIPYNVDPKTGTTPEEVAEELKAALPPDVLRVEFTDESAGG [r13_335_JUSTAS]”, the “folding stability dG unfold” value was 0.317 ± 0.13 kcal/mol in data set [1], -0.166 ± 0.14 kcal/mol in data set [2] and 0.468 ± 0.21 kcal/mol in data set [3].

In the case of “SAGGMKVIELTVDEIKELADKLKENKNLKATIYVNGKKVELEFDTVEDALKALKVKPGDTVLIEIEPSAGGS [r16_377_TrROS_Hall]”, the “folding stability dG unfold” value in data set [1] was 3.48 ± 0.068 kcal/mol; in data set [2], 2.6 ± 0.051 kcal/mol; in data set [3], 3.88 ± 0.07 kcal/mol.

On to “SAGGMKVKVEVEITVNGKLVKKLTVEMSVEELKKLIEELLPPGAKVEVKIVEVKVEEVEVYELPEEEKSAGG [r13_491_TrROS_Hall]”, for which the “folding stability dG unfold” value in data set [1] stood at 2.18 ± 0.32 kcal/mol; in data set [2], 1.81 ± 0.13 kcal/mol; in data set [3], 2.21 ± 0.18 kcal/mol.

Take “SAGGMLDLSDVEVLNTVPIGGGNYLVLLKVPKLGKVVVVPASDLKKLKENVPNVKISFTPVAPSESGSAGGS [r16_61_TrMRF]”: the entries for the “folding stability dG unfold” value in data set [1], in data set [2] and in data set [3] were 1.09 ± 0.059 kcal/mol, 0.601 ± 0.025 kcal/mol and 1.3 ± 0.072 kcal/mol, respectively.

On to “SAGGMLEEVAEELAKELNATAREFTTVGDVPRILLTFKVPGSSTYLEVTLTLPPDGSVERTTKPIAASAGGS [r16_433_JUSTAS]”, for which the “folding stability dG unfold” value in data set [1] stood at 1.3 ± 0.14 kcal/mol; in data set [2], 0.974 ± 0.047 kcal/mol; in data set [3], 1.7 ± 0.17 kcal/mol.

“SAGGMLKIEVTVPAEYPEQAEEIAAEIRDLLEAGPYVKVLKVEIEPTEDTVRVTVVVEIEFDSPEELISAGG [r13_39_TrMRF]”: the “folding stability dG unfold” value in data set [1] amounted to 1.78 ± 0.21 kcal/mol; in data set [2], 1.36 ± 0.17 kcal/mol; in data set [3], 2.1 ± 0.06 kcal/mol.

In the case of “SAGGMLLKLPLSSVEIPPDASEEEIEEAKRKLAKPKVVKVTEEVLIEENGIVKKVKVTKYVSLSVEESAGGS [r16_387_JUSTAS]”, the “folding stability dG unfold” value in data set [1] turned out to be 0.87 ± 0.12 kcal/mol; in data set [2], 0.845 ± 0.082 kcal/mol; in data set [3] it was 0.56 ± 0.29 kcal/mol.

Turning to “SAGGMLPGLRPLLLAVLVPAEEPLEPEQVRELAEELRRELEEKGYGFAFRAIELEDFQLIIVDVVDPFSAGG [r13_442_TrMRF]”, the figures for the “folding stability dG unfold” value in data set [1], in data set [2] and in data set [3] were 3.11 ± 0.051 kcal/mol, 2.54 ± 0.051 kcal/mol and 3.429 ± 0.03 kcal/mol, respectively.

As for “SAGGMLRVTATVGYAPDDPAVELAKKIAEALTPPGMKVRMKAKVTPLADGTYRIDIEVEIRPPGEPGSAGGS [r16_128_TrMRF]”, the “folding stability dG unfold” value in data set [1] came to 3.27 ± 0.14 kcal/mol; in data set [2], 2.65 ± 0.16 kcal/mol; in data set [3] it was 3.64 ± 0.13 kcal/mol.

Consider “SAGGMLTGTLVDPVEGIRYTSFYDPSKPSSSITPKPIPPVPPVSLEELAERLRAATGLSREEVLALLESAGG [r13_824_JUSTAS]”, for which the “folding stability dG unfold” value in data set [1] is 0.76 ± 0.072 kcal/mol; in data set [2] it was 1.02 ± 0.022 kcal/mol; in data set [3] it was 0.396 ± 0.13 kcal/mol.
